Kd and t1/2 data for 16 substances are collected here from paper PMC3349339 (Journal of Molecular Biology, 2012).

The target of one assay is HLA-DR1 with a His→Asn substitution at position β81 (human).
Assay: not given
The substance “HA peptide P9 A (from UniProt P03437 322-334)” gave a Kd of 0.126 µM.

As to “HA peptide P1,9 LS (from UniProt P03437 322-334)”, the Kd turned out to be 1.88 µM.

“HA peptide P1 V (from UniProt P03437 322-334)” had a Kd of 0.0894 µM.

Substance “HA peptide P9 S (from UniProt P03437 322-334)” registered a Kd of 0.13 µM.

Take “HA peptide P1,9 VS (from UniProt P03437 322-334)”: the dissociation constant Kd was 8.17 µM.

As for “HA peptide P1 L (from UniProt P03437 322-334)”, the Kd worked out at 0.0679 µM.

Take “HA peptide P1,9 LA (from UniProt P03437 322-334)”: the Kd was found to be 0.206 µM.

Turning to “HA peptide P1,9 VA (from UniProt P03437 322-334)”, the dissociation constant (Kd) amounted to 0.739 µM.

A further assay has the same target. The assay is described as follows: fluorescence polarisation.
In turn, “fluorescein-labelled HA peptide P1,9 VA (from UniProt P03437 322-334)” registered a t1/2 of 14.4 h.

For the substance “fluorescein-labelled HA peptide P1,9 LA (from UniProt P03437 322-334)”, the t1/2 came to 34 h.

As for “fluorescein-labelled HA peptide P1 V (from UniProt P03437 322-334)”, the t1/2 was 47.9 h.

The substance “fluorescein-labelled HA peptide P9 S (from UniProt P03437 322-334)” yielded a t1/2 of 19.3 h.

Take “fluorescein-labelled HA peptide P1 L (from UniProt P03437 322-334)”: the t1/2 was found to be 55.6 h.

“fluorescein-labelled HA peptide P1,9 LS (from UniProt P03437 322-334)” showed a t1/2 of 5.93 h.

“fluorescein-labelled HA peptide P1,9 VS (from UniProt P03437 322-334)” came in with a t1/2 of 1.65 h.

Turning to “fluorescein-labelled HA peptide P9 A (from UniProt P03437 322-334)”, the t1/2 came to 43.6 h.
